Test system: MS2 coat protein
Assay: apparent KD of MS2 coat protein; designed switch direction (-1 OFF switch, 1 ON switch): -1; higher = weaker reporter binding
Summary of the method: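 Each step of the titration lasted 0.8–1.5 h at the lowest concentration and 10–20 min at the highest. The protein, SNAP-549-labelled MS2 coat protein, went from 0.7 or 1.5 nM doubling to 3 µM over RNA switches transcribed on Illumina chips by stalled E. coli RNA polymerase. Normalised cluster fluorescence was curve-fitted, and the per-design median over clusters is given as apparent KD.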

[1] = Eterna round: R95, input ligand: FMN 200 uM
[2] = Eterna round: R95, input ligand: microRNA oligo, concentration not stated
[3] = Eterna round: R95, input ligand: none
[4] = input ligand: microRNA oligo, concentration not stated

| Sequence | apparent KD of MS2 coat protein [2] [nM] | apparent KD of MS2 coat protein (input ligand: FMN 200 uM) [nM] | apparent KD of MS2 coat protein (input ligand: none) [nM] | further results |
| --- | --- | --- | --- | --- |
| UUUAAUUUUUUUUUUUUACAAGCUUUUUGCUCGUCUUAUACAUGAGGAUCACCCAUGUAGGUGGAGGGUAAAUUAUC [JMF 90] (puzzle: Sensor v3, turn-off variant 2) | 44.1 | – | – | apparent KD of MS2 coat protein [1]: 15.6 nM; apparent KD of MS2 coat protein [3]: 13.1 nM |
| UUUAAUUUUUUUUUUUUACAAGCUUUUUGCUCGUCUUAUACAUGAGGAUCACCCAUGUGAAUGGGAGAUAAAUUAUC [JMF 18] (puzzle: Sensor v3, turn-off variant 2) | 508 | – | – | apparent KD of MS2 coat protein [1]: 356 nM; apparent KD of MS2 coat protein [3]: 456 nM |
| UUUAAUUUUUUUUUUUUACAAGCUUUUUGCUCGUCUUAUACAUGAGGAUCACCCAUGUGGGUGGAGGAUAAAUUAUC [JMF 35] (puzzle: Sensor v3, turn-off variant 2) | 45.4 | – | – | apparent KD of MS2 coat protein [1]: 60.6 nM; apparent KD of MS2 coat protein [3]: 93.9 nM |
| UUUAGUUCAGGAUAUGAUGAAAUUAACAUGAGGAUCACCCAUGUAGAUCCUGAAUUAACAUCAGAAGGGAACAUUU [JL-ex5-4.44 Brourd mod] (Eterna round: R97, puzzle: Exclusion 5) | – | 57.8 | 10.8 | – |
| UUUAGUUCAGGAUAUGUAGAAUUAAACAUGAGGAUCACCCAUGUAGUUCCUGAUCCUGCUACAGAAGGGAACAUUU [Mat - Exclusion 5 - Eli Mod - D13] (Eterna round: R97, puzzle: Exclusion 5) | – | 24.8 | 17.2 | – |
| UUUAGUUCAGGAUAUGUAGAUAUUAACAUGAGGAUCACCCAUGUAGAUCCUGAAUUGACUACAGAAGGGAGCAUUU [Mod of Brourd 17 - Jieux - Exclusion 5] (Eterna round: R97, puzzle: Exclusion 5) | – | 44.7 | 17.7 | – |
| UUUAUAUAGUAAGGAUAUGUAUUAUGUUUAUCAACAGAAGGUACUGACAUGAGGAUCACCCAUGUUUUAGUGUGGGCAUGUAGU [JMF's solution 95] (Eterna round: R96, puzzle: Exclusion NG 1) | – | – | – | apparent KD of MS2 coat protein [4]: 181 nM |
| UUUAUGUCAGGAUAUGAUUAGAUCUACUUUUGUAGAUCUAAUCAGAAGGGACAUGAGGAUCACCCAUGUUUUUU [Ex4 - 3 - 15] (puzzle: Exclusion 4) | 41.2 | – | – | – |
| UUUAUUUUGCAAGGAUAUGUUUAAUUUUAGUUUCCUUACACAUGAGGAUCACCCAUGUUAUACUUACAGAAGGUGCGUAAUUUU [Excl-NG2-LRO01] (Eterna round: R96, puzzle: Exclusion NG 2) | – | – | – | apparent KD of MS2 coat protein [4]: 101 nM |
| UUUCAUCAUGUAGGAUAUGCGUGGCGAAGCUAUGCAGAAGGACAUGAGGAUCACCCAUGUUCUUGCGUCUGCGUACAGAUGCAA [JL ENG1 1.34] (Eterna round: R96, puzzle: Exclusion NG 1) | – | 266 | 43 | apparent KD of MS2 coat protein [4]: 35.5 nM |
| UUUCUCGUUGUGAGGAUAUCGUUUUUGUCUCGGAUCGAGAAGGCACAUGAGGAUCACCCAUGUUUGUUGUGGUU [JR_BMOE4_Sub089] (puzzle: Brourd's mod of Exclusion 4) | 74.9 | – | – | – |
| UUUCUCUGGGCGUCUUCUUACAUGAGGAUCACCCAUGUUUCGCAGGAUAUGCUAUAGUGUUAGAUGCAGAAGGGCGUUUGUUUU [JR_ExcNG3_Sub079] (Eterna round: R96, puzzle: Exclusion NG 3) | – | 262 | 92.5 | apparent KD of MS2 coat protein [4]: 85.8 nM |
| UUUCUUGGGCAAGGAUAUCCUGUGCGGUUCCGGCUCGUGUCUGUCACAUGAGGAUCACCCAUGUGGGAGAAGGUGCCUGCGGUC [Design 82] (Eterna round: R96, puzzle: Exclusion NG 2) | – | 14.4 | 14.9 | apparent KD of MS2 coat protein [4]: 11.2 nM |
| UUUGUGUCAGGAUAUGAGUCGUAGAACAAUAGUACUACGUCUCAGAAGGGACAUGAGGAUCACCCAUGUGCCUC [Fiskers Ex 4 Super Stable 44 mod 27] (puzzle: Exclusion 4) | 34.9 | – | – | – |
| UUUUAACAUGAGGAUCACCCAUGUGAGGAUAUCGAAAUUUAUAUUAAUAUUAAUUUUACGAGAAGGCACAUUUU [JMF 34] (puzzle: Exclusion 1) | 94.6 | – | – | – |
| UUUUAACAUGAGGAUCACCCAUGUGAGGAUAUCGAAAUUUAUAUUAAUAUUAAUUUUUCGAGAAGGCACAUUUU [JMF 33] (puzzle: Exclusion 1) | 143 | – | – | – |
| UUUUAACAUGAGGAUCACCCAUGUGAGGAUAUCGAAAUUUAUAUUAAUAUUUAUUAAUCGAGAAGGCACAUUUU [JMF 60] (puzzle: Exclusion 1) | 100 | – | – | – |
| UUUUAACAUGAGGAUCACCCAUGUGAGGAUAUCGAAAUUUAUAUUAAUAUUUAUUUAACGAGAAGGCACAUUUU [JMF 63] (puzzle: Exclusion 1) | 93.2 | – | – | – |
| UUUUAACAUGAGGAUCACCCAUGUGAGGAUAUCGAAAUUUAUAUUAAUAUUUAUUUUUCGAGAAGGCACAUUUU [JMF 65] (puzzle: Exclusion 1) | 157 | – | – | – |
| UUUUAACAUGAGGAUCACCCAUGUGAGGAUAUCGAAAUUUAUAUUAAUAUUUUUAAUACGAGAAGGCACAUUUU [JMF 70] (puzzle: Exclusion 1) | 49.6 | – | – | – |
| UUUUAACAUGAGGAUCACCCAUGUGAGGAUAUCGUUAUUUAUAUUAAUAUUAAUAAAACGAGAAGGCACAUUUU [JMF 6] (puzzle: Exclusion 1) | 117 | – | – | – |
| UUUUAACAUGAGGAUCACCCAUGUGAGGAUAUCGUUUUUUUUAUUAAUAUUAAUAAAACGAGAAGGCACAUUUU [JMF 18] (puzzle: Exclusion 1) | 140 | – | – | – |
| UUUUACAUAGGAUAUAGUUUGUUGUACAUGAGGAUCACCCAUGUUUUUGGUUGUGCUUUUCUAGAAGGAUGUUUCU [JR_E5_Sub015] (puzzle: Exclusion 5) | 43.8 | – | – | – |
| UUUUAGACAGGAUAUACAUUUUUUUAUUUAUUUAUAAUAUUACAUGAGGAUCACCCAUGUAGAAGGGUCAUUUU [My Design] (puzzle: Exclusion 2) | 37.1 | – | – | – |
| UUUUAGUCAGGAUAUACAUGAGGAUCACCCAUGUAAAAUUUUAAUUUAAUUUGAAGGUGUAGAAGGGACAAUUU [Ex3 #39] (Eterna round: R97, puzzle: Exclusion 3) | – | 22.7 | 35.8 | – |
| UUUUAGUCAGGAUAUACAUGAGGAUCACCCAUGUAAAAUUUUAAUUUAAUUUUAAGGUGUAGAAGGGACAUUUU [Ex3 #5] (Eterna round: R97, puzzle: Exclusion 3) | – | 24.5 | 27.6 | – |
| UUUUAGUCAGGAUAUACAUGAGGAUCACCCAUGUAAAAUUUUAAUUUAAUUUUAAGGUGUAGAAGGGACCACCC [Ex3 #14] (Eterna round: R97, puzzle: Exclusion 3) | – | 31.2 | 35.5 | – |
| UUUUCGUAAGGAUAUGGUUAGAUCUACGAAAGUAGAUCUAACCAGAAGGUACAUGAGGAUCACCCAUGUUGAUA [Mod of Brourd 21 - Jieux - Exclusion 4] (Eterna round: R97, puzzle: Exclusion 4) | – | 32 | 22.5 | – |
| UUUUCUUUUGUGAGGAUAUACUUGUUUUUUUUUUUGUAGAAGGCACAUGAGGAUCACCCAUGUUUUCUUUCCUG [JR_BME4_Sub025] (puzzle: Brourd's mod of Exclusion 4) | 20.1 | – | – | – |

— the supplement of paper PMC9170038
